These results are taken from patent CN116284427A (SUNSHINE GUOJIAN PHARMACEUTICAL SHANGHAI CO LTD, dated 2023).

Where “and” joins values, the source holds several entries; their conditions need not be identical. Identical values can stand only once.

One assay deals with T1, MUC17-ECD-His蛋白 (human, UniProt Q685J3 26-4393).
T1 construct: extracellular domain; Made in HEK-293E; the signal peptide added at the N-terminus is not part of the purified protein; also called MUC17抗原
In words: ELISA, MUC17-ECD-His coated at 500 ng/mL, HRP goat anti-human Fc. For orientation: An ELISA detects its analyte on a solid surface through an enzyme-linked reagent.

Assay [1] has as its target T2, Human CD3 epsilon&CD3 delta Heterodimer Protein (human, UniProt P07766 23-126; P04234 22-105).
T2 construct: Bought heterodimer; also called Human CD3 epsilon&CD3 delta Heterodimer蛋白; CD3抗原
In words: ELISA, CD3 epsilon/delta heterodimer coated at 50 ng/mL, HRP goat anti-human Fc.

Assay [2] addresses CD3 (CD3-TCR complex) on Promega PD1 effector cells (Jurkat T cells) (human). In words: cell-based or functional assay.
Assay [3] concerns the target T3, MUC17 on LS174T cells (human, UniProt Q685J3 26-4493). The assay is described as follows: flow cytometry on LS174T cells, PE goat anti-human Fc.
In assay [4] the target is T3, MUC17 on LS174T cells. The assay is described as follows: cell-based or functional assay.

T2 sequence (P07766 23-126, stated change not applied, chain 1 of 2): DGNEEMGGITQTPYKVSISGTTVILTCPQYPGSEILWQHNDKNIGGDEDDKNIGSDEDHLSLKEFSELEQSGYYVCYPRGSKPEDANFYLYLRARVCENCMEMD
T2 sequence (P04234 22-105, stated change not applied, chain 2 of 2): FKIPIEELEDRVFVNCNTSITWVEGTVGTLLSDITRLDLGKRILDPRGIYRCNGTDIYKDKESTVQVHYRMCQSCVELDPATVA

B1: 27A3人源化抗体(hu-27A3) (antibody, human IgG1, kappa, V domains shown)
VH: QVQLVQSGAEVKKPGASVKVSCKASGYSFTIYWMHWVRQAPGQGLEWIGMSHPSDSESRLNQKFKDRATLTVDKSTSTAYMELSSLRSEDTAVYYCSRPYYGSSAWFADWGQGTLVTVSA
VL: DIVMTQSPDSLAVSLGERATINCKSSQSLLNSSNQKNYLAWYQQKPGQSPKLLIYFASTRESGVPDRFSGSGSGTDFTLTISSLQAEDVAVYYCQQHYSFPLTFGAGTKLELRR
notes: Humanized anti-MUC17 IgG1/kappa, made in HEK-293E; also called 抗MUC17的人源化单克隆抗体
B1 had an EC 50 in the assay with MUC17-ECD-His蛋白 of 0.0893 nM.

B2: 人源化抗CD3抗体huSP34 (antibody, human IgG1, kappa, V domains shown)
VH: EVQLVESGGGLVQPGGSLRLSCAASGFTFNTYAMNWVRQAPGKGLEWVARIRSKYNNYATYYADSVKDRFTISRDDSKNTLYLQMNSLRAEDTAVYYCVRHGNFGNSYVSWFAYWGQGTLVTVSS
VL: QAVVTQEPSLTVSPGGTVTLTCRSSTGAVTTSNYANWVQQKPGQAPRGLIGGTNKRAPGVPARFSGSLLGGKAALTLSGAQPEDEAEYYCALWYSNLWVFGQGTKVEIKR
notes: Humanized SP34, IgG1/kappa; positive control for the CD3 arm
B2: the binding result in assay [1] is listed as “binds”. Besides, the “EC 50” value in assay [2] was 0.73 nM and 0.624 nM.

B3: anti-MUC17×CD3 BsAb CM5 (bispecific antibody, human IgG1, kappa)
heavy: not shown
light: QAVVTQEPSLTVSPGGTVTLTCRSSTGAVTTSNYANWVQQKPGQAPRGLIGGTNKRAPGVPARFSGSLLGGKAALTLSGAQPEDEAEYYCALWYSNLWVFGQGTKVEIKRTVAAPSVFIFPPSDEQLKSGTASVVCLLNNFYPREAKVQWKVDNALQSGNSQESVTEQDSKDSTYSLSSTLTLSKADYEKHKVYACEVTHQGLSSPVTKSFNRGEC
B3: the binding result (in assay [1]; in the assay with MUC17 on LS174T cells [3]) was “binds” throughout. Also, the “EC 50” value in assay [2] was determined as 0.646 nM. This molecule also returned a Top in assay [2] of 42300.

B4: anti-MUC17×CD3 BsAb CM6 (bispecific antibody, human IgG1, kappa)
heavy: not shown
light: B3 light
B4: the binding result in assay [1] is “binds”. In addition, in the assay with MUC17 on LS174T cells [3], the binding result is given as “binds”. In assay [2], the “EC 50” value was determined as 1.11 nM and the Top was found to be 45800.

B5: anti-MUC17×CD3 BsAb CM7 (bispecific antibody, human IgG1, kappa)
heavy: not shown
light: B3 light
As to B5, the binding result in assay [1] is “binds”. The “IC 50 (CD3+T细胞杀伤LS174T细胞, CellTiter-Glo)” value with MUC17 on LS174T cells [4] was 0.28 nM. For the same molecule, in assay [2], the “EC 50” value came out at 1.41 nM and the Top is 80500.

B6: anti-MUC17×CD3 BsAb CM8 (bispecific antibody, human IgG1, kappa)
heavy: not shown
light: B3 light
B6: the binding result in assay [1] was “binds”. Besides, the binding result in the assay with MUC17 on LS174T cells [3] is reported as “binds”. Also, in assay [2], the “EC 50” value amounted to 1.17 nM and the Top is 76700.
